According to paper PMC6514445, “Enterococcal PcfF Is a Ribbon-Helix-Helix Protein That Recruits the Relaxase PcfG Through Binding and Bending of the oriT Sequence” (Frontiers in Microbiology, 2019):

Legend:
[1] = molecular target: PcfF1-54 (RHH domain, GST tag cleaved off) (Enterococcus faecalis (plasmid pCF10)) (UniProt Q5G3N6); experiment: SEC; Superdex 75 10/300 GL with molecular mass standards; PcfF1-54 after GST cleavage, absorbance at 254 nm
[2] = molecular target: T1, PcfF (Enterococcus faecalis plasmid pCF10, UniProt Q5G3N6 1-118); experiment: EMSA; EMSA: 30 nM DNA, 10 mM Tris/HCl pH 7.5, 200 mM NaCl (150 mM NaCl with PcfG), 15 min at room temperature; 20% native PAGE in TAE pH 8.0 at 4 C; details: protein: recombinant; tags: N-terminal GST, 3C-cleaved (4 extra residues left); chain copies: 2; label: 5' FITC on sense strand
T1 sequence: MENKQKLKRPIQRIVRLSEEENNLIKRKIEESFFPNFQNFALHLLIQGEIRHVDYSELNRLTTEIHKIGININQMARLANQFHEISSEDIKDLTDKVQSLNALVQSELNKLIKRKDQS

[3] = molecular target: PcfF R77S (Enterococcus faecalis plasmid pCF10, UniProt Q5G3N6 1-118, R77S); experiment: EMSA; 100 nM protein; as wild type; EMSA: 30 nM DNA, 10 mM Tris/HCl pH 7.5, 200 mM NaCl (150 mM NaCl with PcfG), 15 min at room temperature; 20% native PAGE in TAE pH 8.0 at 4 C; details: protein: recombinant; chain copies: 2; label: 5' FITC on sense strand
[4] = molecular target: PcfF N73A/Q74A (Enterococcus faecalis plasmid pCF10, UniProt Q5G3N6 1-118, N73A;Q74A); experiment: as above; details: protein: recombinant; chain copies: 2; label: 5' FITC on sense strand
[5] = molecular target: PcfF I70S/R77S (Enterococcus faecalis plasmid pCF10, UniProt Q5G3N6 1-118, I70S;R77S); experiment: as above; details: protein: recombinant; chain copies: 2; label: 5' FITC on sense strand
[6] = molecular target: PcfF I70S (Enterococcus faecalis plasmid pCF10, UniProt Q5G3N6 1-118, I70S); experiment: as above; details: protein: recombinant; chain copies: 2; label: 5' FITC on sense strand
[7] = molecular target: PcfF R13L/I14A (Enterococcus faecalis plasmid pCF10, UniProt Q5G3N6 1-118, R13L;I14A); experiment: EMSA; 100 nM protein; Results also say marked decrease; EMSA: 30 nM DNA, 10 mM Tris/HCl pH 7.5, 200 mM NaCl (150 mM NaCl with PcfG), 15 min at room temperature; 20% native PAGE in TAE pH 8.0 at 4 C; details: protein: recombinant; chain copies: 2; label: 5' FITC on sense strand
[8] = molecular target: PcfF R13L (Enterococcus faecalis plasmid pCF10, UniProt Q5G3N6 1-118, R13L); experiment: as above; details: protein: recombinant; chain copies: 2; label: 5' FITC on sense strand
[9] = molecular target: T1, PcfF; experiment: EMSA (DNA bending); EMSA: 30 nM DNA, 10 mM Tris/HCl pH 7.5, 200 mM NaCl (150 mM NaCl with PcfG), 15 min at room temperature; 20% native PAGE in TAE pH 8.0 at 4 C; details: protein: recombinant; tags: N-terminal GST, 3C-cleaved (4 extra residues left); chain copies: 2
[10] = molecular target: T1, PcfF; experiment: EMSA (DNA bending); more pronounced shift than end positions; bending; EMSA: 30 nM DNA, 10 mM Tris/HCl pH 7.5, 200 mM NaCl (150 mM NaCl with PcfG), 15 min at room temperature; 20% native PAGE in TAE pH 8.0 at 4 C; details: protein: recombinant; tags: N-terminal GST, 3C-cleaved (4 extra residues left); chain copies: 2
[11] = molecular target: the molecule itself; experiment: GEMMA (gas-phase electrophoretic mobility macromolecule analysis); SEC peak of wild type PcfF dialysed against 100 mM ammonium acetate pH 7.8, diluted to 0.025 mg/mL with 0.005% Tween-20
[12] = molecular target: the molecule itself; experiment: SEC; Superdex 200 10/300 GL Increase; 20 mM Tris/HCl pH 7.5, 200 mM NaCl; PcfF and its variants, self-association
[13] = molecular target: the molecule itself; experiment: crystal structure; SeMet-PcfF, sitting drop at 20°C, 0.2 M lithium sulfate, 0.1 M Bis-Tris pH 6.5, 25% PEG 3350; space group P2_(1), 4 molecules in the asymmetric unit; 1.9 Å

## PcfF1-54 (RHH domain, GST tag cleaved off) (from UniProt Q5G3N6 1-54) (domain or fragment)
[1]
  stoichiometry N: 2

B1: oriT 40 bp (dsDNA)
DNA 1: TCGCAACATGCTAGCATGTTGCTCCGCTTGCAAAAAGAAA
DNA 2: TTTCTTTTTGCAAGCGGAGCAACATGCTAGCATGTTGCGA
[2]
  Kd: ~100 nM
[3]
  binding result: binds
[4]
  binding result: binds
[5]
  binding result: binds
[6]
  binding result: binds
[7]
  binding result: no binding
[8]
  binding result: no binding

B2: oriT 3' 120 bp (dsDNA)
DNA 1: GTCTCGAGTTTAAAGATATCCAGCTGCCCGGGAGGCCTTCGCGAAATATTGGTACCCCATGGAATCGAGGGATCCTCTAGTCGCAACATGCTAGCATGTTGCTCCGCTTGCAAAAAGAAA
DNA 2: TTTCTTTTTGCAAGCGGAGCAACATGCTAGCATGTTGCGACTAGAGGATCCCTCGATTCCATGGGGTACCAATATTTCGCGAAGGCCTCCCGGGCAGCTGGATATCTTTAAACTCGAGAC
[9]
  binding result: binds

B3: oriT middle 120 bp (dsDNA)
DNA 1: GCGAAATATTGGTACCCCATGGAATCGAGGGATCCTCTAGTCGCAACATGCTAGCATGTTGCTCCGCTTGCAAAAAGAAAAGTCGACACGCGTAGATCTGCTAGCATCGATCCATGGACT
DNA 2: AGTCCATGGATCGATGCTAGCAGATCTACGCGTGTCGACTTTTCTTTTTGCAAGCGGAGCAACATGCTAGCATGTTGCGACTAGAGGATCCCTCGATTCCATGGGGTACCAATATTTCGC
[10]
  binding result: binds

B4: PcfF (wild type, full length, GST tag cleaved off) (natural protein)
chain: MENKQKLKRPIQRIVRLSEEENNLIKRKIEESFFPNFQNFALHLLIQGEIRHVDYSELNRLTTEIHKIGININQMARLANQFHEISSEDIKDLTDKVQSLNALVQSELNKLIKRKDQS
notes: PcfF accessory factor encoded by plasmid pCF10 of Enterococcus faecalis; GenBank AAW51324; 118 residues, 14 kDa; Cloned in pGEX-6P-2 (BamHI/XhoI); the same is likely here; also called wt PcfF; accessory factor PcfF; source: E. coli BL21(DE3), purified (glutathione-agarose, SEC, 3C protease cleavage, second SEC, reverse purification); not shown: GST, N-terminal, cleaved
[11]
  stoichiometry N: ~2

B5: PcfF R16L (natural protein)
chain: MENKQKLKRPIQRIVLLSEEENNLIKRKIEESFFPNFQNFALHLLIQGEIRHVDYSELNRLTTEIHKIGININQMARLANQFHEISSEDIKDLTDKVQSLNALVQSELNKLIKRKDQS
notes: PcfF of plasmid pCF10, Enterococcus faecalis; GenBank AAW51324; 118 residues; source: E. coli BL21(DE3), purified (glutathione-agarose, SEC)
[12]
  binding result: binds

B6: PcfF R77S (as run on SEC) (natural protein)
chain: MENKQKLKRPIQRIVRLSEEENNLIKRKIEESFFPNFQNFALHLLIQGEIRHVDYSELNRLTTEIHKIGININQMASLANQFHEISSEDIKDLTDKVQSLNALVQSELNKLIKRKDQS
notes: as for B5
[12]
  binding result: binds

B7: PcfF N73A/Q74A (as run on SEC) (natural protein)
chain: MENKQKLKRPIQRIVRLSEEENNLIKRKIEESFFPNFQNFALHLLIQGEIRHVDYSELNRLTTEIHKIGINIAAMARLANQFHEISSEDIKDLTDKVQSLNALVQSELNKLIKRKDQS
notes: as for B5
[12]
  binding result: binds

B8: PcfF I70S (as run on SEC) (natural protein)
chain: MENKQKLKRPIQRIVRLSEEENNLIKRKIEESFFPNFQNFALHLLIQGEIRHVDYSELNRLTTEIHKIGSNINQMARLANQFHEISSEDIKDLTDKVQSLNALVQSELNKLIKRKDQS
notes: as for B5
[12]
  binding result: binds

B9: Selenomethionine-derivatized PcfF (full length) (natural protein)
chain: MENKQKLKRPIQRIVRLSEEENNLIKRKIEESFFPNFQNFALHLLIQGEIRHVDYSELNRLTTEIHKIGININQMARLANQFHEISSEDIKDLTDKVQSLNALVQSELNKLIKRKDQS
modifications: selenomethionine in place of methionine
notes: PcfF accessory factor encoded by plasmid pCF10 of Enterococcus faecalis; GenBank AAW51324; 118 residues; Probably with the GST cleaved off, as for the wild type; 4 molecules in the asymmetric unit (dimer of dimers); also called SeMet-PcfF; source: E. coli BL21(DE3) in M9 minimal medium with L-selenomethionine, purified as wild type PcfF with 0.5 mM TCEP
[13]
  binding result: binds

B10: PcfF Q105A (natural protein)
chain: MENKQKLKRPIQRIVRLSEEENNLIKRKIEESFFPNFQNFALHLLIQGEIRHVDYSELNRLTTEIHKIGININQMARLANQFHEISSEDIKDLTDKVQSLNALVASELNKLIKRKDQS
notes: PcfF of plasmid pCF10, Enterococcus faecalis; GenBank AAW51324; 118 residues; also called PcfF_(Q105A/W) variants; source: E. coli BL21(DE3), purified (glutathione-agarose, SEC)
[12]
  binding result: binds

B11: PcfF R13L (natural protein)
chain: MENKQKLKRPIQLIVRLSEEENNLIKRKIEESFFPNFQNFALHLLIQGEIRHVDYSELNRLTTEIHKIGININQMARLANQFHEISSEDIKDLTDKVQSLNALVQSELNKLIKRKDQS
notes: as for B5
[12]
  binding result: binds

B12: PcfF I70S/R77S (as run on SEC) (natural protein)
chain: MENKQKLKRPIQRIVRLSEEENNLIKRKIEESFFPNFQNFALHLLIQGEIRHVDYSELNRLTTEIHKIGSNINQMASLANQFHEISSEDIKDLTDKVQSLNALVQSELNKLIKRKDQS
notes: as for B5
[12]
  binding result: binds

B13: PcfF I14A (natural protein)
chain: MENKQKLKRPIQRAVRLSEEENNLIKRKIEESFFPNFQNFALHLLIQGEIRHVDYSELNRLTTEIHKIGININQMARLANQFHEISSEDIKDLTDKVQSLNALVQSELNKLIKRKDQS
notes: as for B5
[12]
  binding result: binds

B14: PcfF R13L/R16L (natural protein)
chain: MENKQKLKRPIQLIVLLSEEENNLIKRKIEESFFPNFQNFALHLLIQGEIRHVDYSELNRLTTEIHKIGININQMARLANQFHEISSEDIKDLTDKVQSLNALVQSELNKLIKRKDQS
notes: as for B5
[12]
  binding result: binds

B15: PcfF R13L/I14A/R16L (natural protein)
chain: MENKQKLKRPIQLAVLLSEEENNLIKRKIEESFFPNFQNFALHLLIQGEIRHVDYSELNRLTTEIHKIGININQMARLANQFHEISSEDIKDLTDKVQSLNALVQSELNKLIKRKDQS
notes: as for B5
[12]
  binding result: binds

B16: PcfF R13L/I14A (natural protein)
chain: MENKQKLKRPIQLAVRLSEEENNLIKRKIEESFFPNFQNFALHLLIQGEIRHVDYSELNRLTTEIHKIGININQMARLANQFHEISSEDIKDLTDKVQSLNALVQSELNKLIKRKDQS
notes: as for B5
[12]
  binding result: binds

B17: PcfF Q105W (natural protein)
chain: MENKQKLKRPIQRIVRLSEEENNLIKRKIEESFFPNFQNFALHLLIQGEIRHVDYSELNRLTTEIHKIGININQMARLANQFHEISSEDIKDLTDKVQSLNALVWSELNKLIKRKDQS
notes: as for B10
[12]
  binding result: binds

B18: random 44 bp DNA (dsDNA)
DNA 1: AGTGAACTGAAAGAAGAAACACACGTTGCATGAAGAGCTATATA
DNA 2: TATATAGCTCTTCATGCAACGTGTGTTTCTTCTTTCAGTTCACT
[2]
  binding result: no binding
